In the assay the target is HEWL (lysozyme, derived from egg albumen, FUJIFILM Wako Pure Chemical Corporation) (UniProt P00698 19-147). Put plainly: SPR (Biacore). Background: In SPR one partner is held on a chip, and binding of the other changes the refractive index at the surface.
Sequence of HEWL (lysozyme, derived from egg albumen, FUJIFILM Wako Pure Chemical Corporation) (P00698 19-147): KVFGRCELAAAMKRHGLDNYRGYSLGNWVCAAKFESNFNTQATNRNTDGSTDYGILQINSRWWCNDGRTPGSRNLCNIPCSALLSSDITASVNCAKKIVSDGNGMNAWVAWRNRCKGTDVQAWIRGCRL

B1: 1ZVH (VHH, SEQ ID NO: 38) produced by Bacillus subtilis Dpr9ΔsigF (VHH)
VHH: QVQLVESGGGLVQPGGSLRLSCAASGFTFSNDAMTWVRQAPGKALEWVSSITLLGGGIPYYSDTVKGRFTISRDNTKNMLYLQMNSLKPEDTAVYYCAKGFKSDYPRGQGTQVTVSS
The term Kd denotes the concentration at which binding is half-saturated. Low readings indicate higher affinity, high ones lower affinity. B1 had a Kd of 18 nM. That is a double-digit nanomolar value.

The values are drawn from patent US20230111102A1 (published 2023).
